One may read the stoichiometry N as the number of molecules, sites or subunits per partner or assembly.

The target in experiment [1] is chCALHM1 hCALHM2 chimera (chicken | human) (UniProt Q9HA72). As to the kind of experiment: cryo-EM structure.
The next experiment addresses chicken CALHM1 (chicken). In words: cryo-EM structure.

The substance “chCALHM1 hCALHM2 chimera (from UniProt Q9HA72 205-323)” had a stoichiometry N in experiment [1] of 11. chicken CALHM1 (natural protein) displayed a stoichiometry N with chicken CALHM1 (chicken) of 8.
